# Data as given in PMC11178898, “A clade of receptor-like cytoplasmic kinases and 14-3-3 proteins coordinate inositol hexaphosphate accumulation” (Nature Communications, 2024).
# B1: GRF4, Split-LUC fusion [Arabidopsis thaliana] / PI-PLC2, Split-LUC fusion [Arabidopsis thaliana] (parent)
# chain 1: MAAPPASSSAREEFVYLAKLAEQAERYEEMVEFMEKVAEAVDKDELTVEERNLLSVAYKNVIGARRASWRIISSIEQKEESRGNDDHVTTIRDYRSKIESELSKICDGILKLLDTRLVPASANGDSKVFYLKMKGDYHRYLAEFKTGQERKDAAEHTLTAYKAAQDIANAELAPTHPIRLGLALNFSVFYYEILNSPDRACNLAKQAFDEAIAELDTLGEESYKDSTLIMQLLRDNLTLWTSDMQDESPEEIKEAAAPKPAEEQKEI
# chain 2: MSKQTYKVCFCFRRRFRYTASEAPREIKTIFEKYSENGVMTVDHLHRFLIDVQKQDKATREDAQSIINSASSLLHRNGLHLDAFFKYLFGDNNPPLALHKVHHDMDAPISHYFIFTGHNSYLTGNQLSSDCSEVPIIDALKKGVRVIELDIWPNSNKDDIDVLHGMTLTTPVGLIKCLKAIRAHAFDVSDYPVVVTLEDHLTPDLQSKVAEMVTEIFGEILFTPPVGESLKEFPSPNSLKRRIIISTKPPKEYKEGKDVEVVQKGKDLGDEEVWGREVPSFIQRNKSEAKDDLDGNDDDDDDDDEDKSKINAPPQYKHLIAIHAGKPKGGITECLKVDPDKVRRLSLSEEQLEKAAEKYAKQIVRFTQHNLLRIYPKGTRVTSSNYNPLVGWSHGAQMVAFNMQGYGRSLWLMQGMFRANGGCGYIKKPDLLLKSGSDSDIFDPKATLPVKTTLRVTVYMGEGWYFDFRHTHFDQYSPPDFYTRVGIAGVPGDTVMKKTKTLEDNWIPAWDEVFEFPLTVPELALLRLEVHEYDMSEKDDFGGQTCLPVWELSEGIRAFPLHSRKGEKYKSVKLLVKVEFV
# Variants of: B1
# Assay: Split-LUC
# Conditions: with PI-PLC2, Split-LUC fusion [Arabidopsis thaliana]; P4: nluc-GRF4 S242D, cluc-PI-PLC2, 35S::IPCK1-flag co-infiltrated (1:1:2); Total cps 150882, Areas 56.84; parent value is P1, which the printed layout grid …; parent: 1.67e+03
row,Variant,response (cps (average))
1,chain 1 MAAPPASSSAREEFVYLAKLAEQAERYEEMVEFMEKVAEAVDKDELTVEERNLLSVAYKNVIGARRASWRIISSIEQKEESRGNDDHVTTIRDYRSKIESELSKICDGILKLLDTRLVPASANGDSKVFYLKMKGDYHRYLAEFKTGQERKDAAEHTLTAYKAAQDIANAELAPTHPIRLGLALNFSVFYYEILNSPDRACNLAKQAFDEAIAELDTLGEESYKDSTLIMQLLRDNLTLWTDDMQDESPEEIKEAAAPKPAEEQKEI [chain 1 S242D],2650

# Same assay, conditions: with PI-PLC2, Split-LUC fusion [Arabidopsis thaliana]; P3: nluc-GRF4 S242A, cluc-PI-PLC2, 35S::IPCK1-flag co-infiltrated (1:1:2); Total cps 91336, Areas 49.23; parent value is P1, which the printed layout grid …; parent: 1.67e+03
row,Variant,response (cps (average))
1,chain 1 MAAPPASSSAREEFVYLAKLAEQAERYEEMVEFMEKVAEAVDKDELTVEERNLLSVAYKNVIGARRASWRIISSIEQKEESRGNDDHVTTIRDYRSKIESELSKICDGILKLLDTRLVPASANGDSKVFYLKMKGDYHRYLAEFKTGQERKDAAEHTLTAYKAAQDIANAELAPTHPIRLGLALNFSVFYYEILNSPDRACNLAKQAFDEAIAELDTLGEESYKDSTLIMQLLRDNLTLWTADMQDESPEEIKEAAAPKPAEEQKEI [chain 1 S242A],1860
